The values that follow come from patent US20130064834A1 (published 2013).

The target in assay [1] is T1, mouse PCSK9, myc-myc-his tagged (mouse, UniProt Q80W65 35-694). Kind of assay: cell-based or functional assay.
For assay [2], the target named is T2, cynomolgus monkey (Macaca fascicularis) PCSK9, myc-myc-his tagged (cynomolgus monkey (Macaca fascicularis), UniProt A8T662 31-692 (Macaca nemestrina entry), limits assumed). Description: cell-based or functional assay.
In assay [3] the target is T3, Human PCSK9-myc-myc-his (human, UniProt Q8NBP7 31-692). Description: cell-based or functional assay.
Assay [4] concerns the target T4, hPCSK9(D374Y)-mmh (human, UniProt Q8NBP7 31-692). Description: cell-based or functional assay.
Assay [5] concerns the target T5, rat (Rattus norvegicus) PCSK9, myc-myc-his tagged (rat (Rattus norvegicus), UniProt P59996 31-691). Kind of assay: cell-based or functional assay.
The target of assay [6] is T6, his-tagged Syrian golden hamster (Mesocricetus auratus) PCSK9 (Syrian golden hamster (Mesocricetus …)).
T6 chain: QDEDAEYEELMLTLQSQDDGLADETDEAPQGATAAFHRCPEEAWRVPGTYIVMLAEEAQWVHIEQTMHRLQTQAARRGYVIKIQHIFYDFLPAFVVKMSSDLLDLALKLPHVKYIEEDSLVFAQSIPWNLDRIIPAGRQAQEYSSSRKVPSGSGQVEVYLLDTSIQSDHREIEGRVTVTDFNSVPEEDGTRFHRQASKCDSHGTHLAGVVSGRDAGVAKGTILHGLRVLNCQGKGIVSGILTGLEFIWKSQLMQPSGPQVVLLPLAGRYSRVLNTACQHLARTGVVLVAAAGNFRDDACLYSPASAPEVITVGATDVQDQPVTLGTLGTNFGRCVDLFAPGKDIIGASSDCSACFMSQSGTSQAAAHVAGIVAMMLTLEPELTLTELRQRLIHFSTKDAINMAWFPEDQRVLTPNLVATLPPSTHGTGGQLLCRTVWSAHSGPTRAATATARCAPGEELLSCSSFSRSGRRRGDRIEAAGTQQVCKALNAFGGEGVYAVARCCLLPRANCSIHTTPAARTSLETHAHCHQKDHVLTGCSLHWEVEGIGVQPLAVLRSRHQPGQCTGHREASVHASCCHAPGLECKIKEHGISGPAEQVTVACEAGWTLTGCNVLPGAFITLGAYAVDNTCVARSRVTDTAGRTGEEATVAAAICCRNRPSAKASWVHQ
Description: cell-based or functional assay.

Assay [7] deals with T4, hPCSK9(D374Y)-mmh. Kind of assay: SPR, mAb captured on anti-human IgG, 25C. (In general: In SPR one partner is held on a chip, and binding of the other changes the refractive index at the surface.)
Assay [8] concerns the target T3, Human PCSK9-myc-myc-his. Description: SPR, mAb captured on anti-hFc, 100 nM antigen.
Description: (§1) Changes in RU due to the binding of each protein to the mAb surface was determined.
Assay [9] has as its target T7, Chimeric protein #1 (mPro-hCat-mC-term-mmh) (mouse; human, UniProt Q80W65 35-694).
T7 chain: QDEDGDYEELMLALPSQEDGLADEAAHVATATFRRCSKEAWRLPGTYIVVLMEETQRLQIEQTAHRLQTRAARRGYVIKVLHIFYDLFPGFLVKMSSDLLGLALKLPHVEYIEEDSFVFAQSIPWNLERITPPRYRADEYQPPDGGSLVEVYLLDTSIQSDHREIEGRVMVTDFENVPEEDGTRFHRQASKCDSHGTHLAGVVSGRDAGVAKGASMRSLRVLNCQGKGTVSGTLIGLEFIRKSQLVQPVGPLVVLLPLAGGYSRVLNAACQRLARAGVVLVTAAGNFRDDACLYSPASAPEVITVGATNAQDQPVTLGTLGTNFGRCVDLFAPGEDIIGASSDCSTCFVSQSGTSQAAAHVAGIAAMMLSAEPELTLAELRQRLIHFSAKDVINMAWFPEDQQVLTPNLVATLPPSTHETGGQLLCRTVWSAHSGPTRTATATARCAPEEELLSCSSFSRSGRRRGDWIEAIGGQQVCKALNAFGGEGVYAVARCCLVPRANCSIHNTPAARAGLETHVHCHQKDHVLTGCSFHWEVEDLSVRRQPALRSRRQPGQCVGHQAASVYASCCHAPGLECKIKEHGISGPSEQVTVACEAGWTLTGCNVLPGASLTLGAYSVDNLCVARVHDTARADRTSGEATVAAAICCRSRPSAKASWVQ
Description: SPR, mAb captured on anti-hFc, 100 nM antigen.
Description: as §1

Assay [10] addresses Chimeric protein #2 (hPro-mCat-mC-term-mmh) (human; mouse, UniProt Q80W65 19-694). Kind of assay: SPR, mAb captured on anti-hFc, 100 nM antigen.
Description: as §1
Assay [11] concerns the target T1, mouse PCSK9, myc-myc-his tagged. Kind of assay: competition ELISA vs EGF-A-hFc, pH 7.2. A general note: ELISA stands for enzyme-linked immunosorbent assay.
Description: (§2) Briefly, hLDLR-ecto, hLDLR EGF-A-hFc or hLDLR EGF-AB-hFc, each at 2 μg/ml, was coated on a 96-well plate in PBS buffer overnight at 4° C., and nonspecific binding sites blocked with BSA. […] The equilibrated sample solutions were transferred to receptor or receptor fragment coated plates.
Assay [12] concerns the target T8, tagged rhesus monkey (Macaca mulata) PCSK9 (rhesus monkey (Macaca mulata), UniProt A8T666 31-692).
T8 construct: also called mmPCSK9-mmh; mmPCSK9
Description: competition ELISA vs EGF-A-hFc, pH 7.2.
Description: as §2

Assay [13] deals with T1, mouse PCSK9, myc-myc-his tagged. Kind of assay: competition ELISA vs EGF-A, pH 7.2.
Description: as §2
In assay [14] the target is T8, tagged rhesus monkey (Macaca mulata) …. Description: competition ELISA vs EGF-A, pH 7.2.
Description: as §2
The target of assay [15] is T2, cynomolgus monkey (Macaca fascicularis) …. Description: competition ELISA vs EGF-A, pH 7.2.
Description: as §2
Assay [16] deals with T3, Human PCSK9-myc-myc-his. Kind of assay: competition ELISA vs EGF-A, pH 7.2.
Description: as §2
For assay [17], the target named is T5, rat (Rattus norvegicus) PCSK9, …. Kind of assay: competition ELISA vs EGF-A, pH 7.2.
Description: as §2
In assay [18] the target is T6, his-tagged Syrian golden hamster …. Description: competition ELISA vs EGF-A, pH 7.2.
Description: as §2

Bounds are passed on as bounds.

T8 sequence (A8T666 31-692 limits assumed): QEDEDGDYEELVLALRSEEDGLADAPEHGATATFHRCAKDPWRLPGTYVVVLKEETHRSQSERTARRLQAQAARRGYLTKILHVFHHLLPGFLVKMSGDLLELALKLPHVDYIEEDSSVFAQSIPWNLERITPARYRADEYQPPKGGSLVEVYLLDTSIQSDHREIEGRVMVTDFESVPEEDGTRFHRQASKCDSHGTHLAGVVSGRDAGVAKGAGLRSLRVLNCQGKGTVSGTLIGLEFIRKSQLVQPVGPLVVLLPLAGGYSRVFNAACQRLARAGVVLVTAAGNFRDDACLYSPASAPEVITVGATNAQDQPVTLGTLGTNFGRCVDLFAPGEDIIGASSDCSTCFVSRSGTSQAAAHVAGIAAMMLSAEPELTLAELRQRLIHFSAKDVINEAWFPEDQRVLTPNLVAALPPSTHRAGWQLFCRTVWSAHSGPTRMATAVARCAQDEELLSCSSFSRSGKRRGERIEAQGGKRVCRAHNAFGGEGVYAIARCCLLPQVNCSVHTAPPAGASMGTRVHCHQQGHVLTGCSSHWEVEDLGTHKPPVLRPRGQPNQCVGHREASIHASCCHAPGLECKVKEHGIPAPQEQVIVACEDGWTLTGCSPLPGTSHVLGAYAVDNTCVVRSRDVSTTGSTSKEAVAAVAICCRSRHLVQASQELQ
T2 sequence (A8T662 31-692 limits assumed): as the sequence (A8T666 31-692 limits assumed) above, with P607A, K639E counted along it
T5 sequence (P59996 31-691 limits assumed): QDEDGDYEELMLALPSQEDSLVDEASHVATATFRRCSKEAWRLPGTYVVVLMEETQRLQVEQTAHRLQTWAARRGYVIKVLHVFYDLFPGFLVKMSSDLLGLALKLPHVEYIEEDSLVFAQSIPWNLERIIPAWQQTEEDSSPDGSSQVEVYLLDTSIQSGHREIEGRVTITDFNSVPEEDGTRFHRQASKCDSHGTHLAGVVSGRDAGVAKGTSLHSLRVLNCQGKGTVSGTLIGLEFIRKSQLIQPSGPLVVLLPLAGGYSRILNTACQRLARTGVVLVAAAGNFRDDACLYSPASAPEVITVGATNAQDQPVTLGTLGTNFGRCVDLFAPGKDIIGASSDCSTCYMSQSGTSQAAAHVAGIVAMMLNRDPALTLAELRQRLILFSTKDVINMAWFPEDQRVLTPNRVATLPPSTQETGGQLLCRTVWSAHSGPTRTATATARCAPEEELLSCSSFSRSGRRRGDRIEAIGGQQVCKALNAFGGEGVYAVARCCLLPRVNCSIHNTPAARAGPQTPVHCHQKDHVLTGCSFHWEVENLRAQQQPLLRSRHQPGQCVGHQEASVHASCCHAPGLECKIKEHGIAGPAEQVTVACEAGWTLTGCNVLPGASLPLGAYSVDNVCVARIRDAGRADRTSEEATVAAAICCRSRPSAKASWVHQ

B1: H1M300N (antibody, V domains shown)
VH: EMQLVESGGGLVQPGGSLRLSCAASGFTFSSHWMKWVRQAPGKGLEWVANINQDGSEKYYVDSVKGRFTISRDNAKNSLFLQMNSLRAEDTAVYYCARDIVLMVYDMDYYYYGMDVWGQGTTVTVSS
VL: not shown
notes: Fully human version made in CHO cells
For orientation: Kd means the free concentration of one partner at which half of the binding sites on the other are occupied at equilibrium, for simple one-to-one binding. One may read the IC50 as the midpoint of a concentration-inhibition curve. For B1, the “IC50, LDL uptake in HepG2 cells” value in assay [1] is more than 500 nM; in assay [2], 13.4 nM; in the assay with Human PCSK9-myc-myc-his [3] it was 12.6 nM; with hPCSK9(D374Y)-mmh [4] it was 11 nM; in assay [5] it was more than 500 nM; in assay [6] it was more than 500 nM. Binding with hPCSK9(D374Y)-mmh [7] was put at a Kd of 1.06 nM. This molecule gave a T1/2 in the assay with hPCSK9(D374Y)-mmh [7] of 49 min. Besides, the figures for the “change in RU” value (in the assay with Human PCSK9-myc-myc-his [8]; in [9]; in assay [10]) were 320 RU, 243 RU and 76 RU, respectively. The IC50 was more than 33 nM in assay [11]; 0.256 nM in assay [12]; more than 100 nM in [13]; 0.46 nM in assay [14]; 0.473 nM in [15]; 0.182 nM in the assay with Human PCSK9-myc-myc-his [16]. The IC50 in [17] and in [18] was more than 100 nM in each case.

B2: H1H316P (antibody, V domains shown)
VH: EVQLVESGGGLVQPGGSLRLSCAASGFTFNNYAMNWVRQAPGKGLDWVSTISGSGGTTNYADSVKGRFIISRDSSKHTLYLQMNSLRAEDTAVYYCAKDSNWGNFDLWGRGTLVTVSS
VL: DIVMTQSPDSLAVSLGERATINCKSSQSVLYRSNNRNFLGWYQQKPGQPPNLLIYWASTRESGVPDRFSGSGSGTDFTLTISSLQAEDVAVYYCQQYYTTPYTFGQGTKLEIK
notes: Fully human mAb made in CHO cells; also called mAb316P
On to B2, for which the “IC50, LDL uptake in HepG2 cells” value in assay [1] stood at 21.2 nM; in assay [2], 14.7 nM; with Human PCSK9-myc-myc-his [3] it was 14.1 nM; in the assay with hPCSK9(D374Y)-mmh [4], 2.1 nM; in assay [5], 27.7 nM; in [6], 14.4 nM. This molecule also yielded a Kd with hPCSK9(D374Y)-mmh [7] of 1.78 nM. In addition, the T1/2 in the assay with hPCSK9(D374Y)-mmh [7] amounted to 14 min. The “change in RU” value worked out at 500 RU in the assay with Human PCSK9-myc-myc-his [8], 529 RU in [9] and 451 RU in assay [10]. In addition, the IC50 is less than 0.25 nM in assay [11]; less than 0.25 nM in [12]; 0.305 nM in assay [13]; less than 0.25 nM in assay [14]; 0.075 nM in assay [15]; less than 0.125 nM in the assay with Human PCSK9-myc-myc-his [16]. Moreover, the IC50 stood at 2.66 nM in assay [17] and 0.349 nM in [18].
